Test results from patent US20240010750A1 (Bayer, published 2024).
Where two headings read alike, the source gives them in different places.

T1: human alpha2-Antiplasmin (human, UniProt P08697 40-491)
T1 construct: Bought (antibodies online, ABIN2544306); also called human A2AP; a2AP
T1 sequence: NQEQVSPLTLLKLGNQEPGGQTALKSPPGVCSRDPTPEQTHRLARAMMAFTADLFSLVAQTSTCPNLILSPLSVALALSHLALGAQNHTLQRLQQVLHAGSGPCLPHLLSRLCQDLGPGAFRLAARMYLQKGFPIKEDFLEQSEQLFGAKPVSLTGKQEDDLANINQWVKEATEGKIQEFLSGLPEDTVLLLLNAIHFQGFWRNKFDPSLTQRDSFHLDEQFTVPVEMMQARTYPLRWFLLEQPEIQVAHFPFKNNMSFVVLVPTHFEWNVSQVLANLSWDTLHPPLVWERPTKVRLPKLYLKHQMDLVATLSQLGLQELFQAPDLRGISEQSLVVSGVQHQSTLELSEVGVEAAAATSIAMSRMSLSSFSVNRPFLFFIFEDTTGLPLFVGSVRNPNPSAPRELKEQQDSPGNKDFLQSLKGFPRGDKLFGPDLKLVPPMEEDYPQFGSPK

T2: cynomolgus alpha2-Antiplasmin (cynomolgus (Macaca fascicularis), UniProt P08697 28-491 (human entry))
T2 construct: Made in house in the same way as the rabbit protein; also called cynomolgus A2AP; Macaca fascicularis A2AP
T2 chain: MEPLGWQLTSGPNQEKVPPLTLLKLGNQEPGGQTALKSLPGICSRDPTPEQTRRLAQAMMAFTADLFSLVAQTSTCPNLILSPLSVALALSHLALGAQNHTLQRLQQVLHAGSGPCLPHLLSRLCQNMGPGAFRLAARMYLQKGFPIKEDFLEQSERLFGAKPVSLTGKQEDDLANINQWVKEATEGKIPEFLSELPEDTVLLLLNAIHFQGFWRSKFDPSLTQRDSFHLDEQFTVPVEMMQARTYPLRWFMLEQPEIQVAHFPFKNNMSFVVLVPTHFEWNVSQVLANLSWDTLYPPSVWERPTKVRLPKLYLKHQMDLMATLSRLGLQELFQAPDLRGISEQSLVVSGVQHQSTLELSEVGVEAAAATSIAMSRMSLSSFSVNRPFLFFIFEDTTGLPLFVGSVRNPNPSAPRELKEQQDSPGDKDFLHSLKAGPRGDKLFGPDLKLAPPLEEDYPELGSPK

T3: rabbit alpha2-Antiplasmin (rabbit (Oryctolagus cuniculus))
T3 construct: Made in house in HEK293 cells, purified by Ni-IMAC and SEC (a His tag is implied but not described); also called rabbit A2AP; Oryctolagus cuniculus A2AP
T3 chain: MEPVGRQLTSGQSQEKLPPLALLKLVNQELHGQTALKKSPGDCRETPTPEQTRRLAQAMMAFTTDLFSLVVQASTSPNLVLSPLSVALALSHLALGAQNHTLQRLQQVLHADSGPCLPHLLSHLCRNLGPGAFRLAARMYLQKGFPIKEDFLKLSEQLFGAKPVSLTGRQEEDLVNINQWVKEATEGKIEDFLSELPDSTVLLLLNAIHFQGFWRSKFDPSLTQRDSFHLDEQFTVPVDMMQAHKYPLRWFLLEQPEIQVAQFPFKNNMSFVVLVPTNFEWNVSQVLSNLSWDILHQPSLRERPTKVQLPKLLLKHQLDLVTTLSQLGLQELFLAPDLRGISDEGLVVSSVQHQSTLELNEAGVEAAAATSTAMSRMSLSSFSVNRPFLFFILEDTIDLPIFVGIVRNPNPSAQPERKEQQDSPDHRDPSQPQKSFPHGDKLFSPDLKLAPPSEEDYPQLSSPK


Legend:
[1] = biological target: T1, human alpha2-Antiplasmin; experiment: ELISA, coated antigen, 1st exp.
Protocol: (§1) A standard ELISA format was used for analyzing the binding affinity of Fabs of this invention to human and rabbit alpha-2-Antiplasmin, respectively. Antigens were coated to black 384 well Maxisorp microtiter plates (Nunc; catalogue number 460518), diluted to a concentration of 1 μg/ml in 1× Coating Buffer (Candor Bioscience; catalogue number 121125). Plates were incubated overnight at 4° C. After overnight incubation, plates were washed 2× with 50 μl/well using PBS+0.05% Tween 20. Following this, 50 μl/well of blocking buffer (Smart Block; Candor Bioscience; catalogue number 113500) was added and the plates were incubated for 1 hour at room temperature. Afterwards, plates were washed for 3× using […] PBS+0.05% Tween 20 buffer. Fabs of this invention were added at different concentrations in a final volume of 30 μl/well. Plates were incubated for 1 hour at room temperature. Following this incubation step, plates were washed for 3× using 50 μl/well of a PBS+0.05% Tween 20 buffer. For the detection of bound Fabs and full-length antibodies, the anti-Human Lambda Light Chains (Bound and Free)—Peroxidase antibody (Sigma; catalogue number A5175) was diluted by the factor of 1:10.000 in 10% Blocking Buffer. 30 μl/well of this diluted detection antibody was added and plates are incubated for 1 hour at room temperature. Following this incubation step, plates were washed for 3× using 50 μl/well of a PBS+0.05% Tween 20 buffer. As substrate, a mixture of 30 μl/well of 1:1000 diluted Amplex red (Invitrogen; catalogue number 12222; stock solution 10 mM in DMSO) and 1:10.000 of Hydrogen peroxide (Merck; catalogue number 107209; 30% stock solution) was added and the plates incubated for minutes in the dark.
(§2) For measurement, the Infinite f500 reader (Tecan) was used. Measurement mode: Fluorescence; Top reading; Ex 535 nm; Em 590 nm.
(§3) According to the methods described in Example 3 and Example 4, antibodies TPP-14323, TPP-14318, TPP-14314, TPP-14313, TPP-14308, TPP-14305, TPP-14303, TPP-14298, and TPP-14293 were tested for their ability to bind to and to block the activity of human alpha2-Antiplasmin in a dose-dependent manner. For each antibody, one dose response curve from two to three independent experiments performed in quadruplicate is shown as example in FIG. 7.1 to FIG. 7.18. (see Table 3.3)

[2] = biological target: T1, human alpha2-Antiplasmin; experiment: ELISA, coated antigen, 2nd exp.
Protocol: as §1, §2, §3

[3] = biological target: T1, human alpha2-Antiplasmin; experiment: cell-based or functional assay
[4] = biological target: human Plasmin (human, UniProt P00747 97-580; P00747 581-810, limits assumed); experiment: cell-based or functional assay
[5] = biological target: T1, human alpha2-Antiplasmin; experiment: ELISA, coated antigen, 3rd exp.
Protocol: as §1, §2, §3

[6] = biological target: T1, human alpha2-Antiplasmin; experiment: cell-based or functional assay; remark: listed apart in the source
[7] = biological target: T2, cynomolgus alpha2-Antiplasmin; experiment: SPR Biacore T200, antibody captured on protein G chip, A2AP as analyte, 25 C
Protocol: (§4) Binding assays were performed on a Biacore T200 instrument at 25° C. with a protein G sensor chip and assay buffer HBS-EP+. Antibodies were captured to ˜150 RU and analytes were used at concentrations between 1.56 and 200 nM for full kinetics. As interaction partner, alpha2-Antiplasmin from human, cynomolgus and rabbit was used. Regeneration was performed with glycine-HCl pH 1.5. Kinetic parameters were derived by fitting experimental sensorgrams to a 1:1 Langmuir binding model.

[8] = biological target: T3, rabbit alpha2-Antiplasmin; experiment: as above
Protocol: as §4

[9] = biological target: T1, human alpha2-Antiplasmin; experiment: as above
Protocol: as §4

[10] = biological target: T1, human alpha2-Antiplasmin; experiment: ELISA, coated antigen, quantified unpurified antibody, 3rd exp.
Protocol: as §1, §2

[11] = biological target: T1, human alpha2-Antiplasmin; experiment: ELISA, coated antigen, quantified unpurified antibody, 2nd exp.
[12] = biological target: T1, human alpha2-Antiplasmin; experiment: cell-based or functional assay; remark: listed apart in the source
[13] = biological target: T1, human alpha2-Antiplasmin; experiment: cell-based or functional assay; remark: listed apart in the source
[14] = biological target: T1, human alpha2-Antiplasmin; experiment: ELISA (Example 3), human alpha2-Antiplasmin coated, RFU
Protocol: as §1, with “As substrate, a mixture of 30 μl/well of 1:1000 diluted Amplex red (Invitrogen; catalogue number 12222; stock solution 10 mM in DMSO) and 1:10.000 of Hydrogen peroxide (Merck; catalogue number 107209; 30% stock solution) was added and the plates incubated for minutes in the dark.” left out
as §2
According to the method described in Example 3, these 12 antibodies were tested for ability to bind human and rabbit alpha2-Antiplasmin in a dose-dependent manner. Data generated were analyzed using the GraphPadPrism software. The binding activities of the antibodies were calculated as EC50 values. […]

[15] = biological target: T1, human alpha2-Antiplasmin; experiment: cell-based or functional assay; remark: listed apart in the source
[16] = biological target: T1, human alpha2-Antiplasmin; experiment: ELISA, coated antigen, quantified unpurified antibody, 1st exp.
[17] = biological target: T1, human alpha2-Antiplasmin; experiment: ELISA, coated antigen, 1st exp.; 1st exp.
Protocol: as §1, with “30 μl/well of this diluted detection antibody was added and plates are incubated for 1 hour at room temperature. Following this incubation step, plates were washed for 3× using 50 μl/well of a PBS+0.05% Tween 20 buffer. As substrate, a mixture of 30 μl/well of 1:1000 diluted Amplex red (Invitrogen; catalogue number 12222; stock solution 10 mM in DMSO) and 1:10.000 of Hydrogen peroxide (Merck; catalogue number 107209; 30% stock solution) was added and the plates incubated for minutes in the dark.” left out
(§5) For measurement, the Infinite f500 reader (Tecan) was used. Measurement mode: Fluorescence; Top reading; Ex 535 nm; Em 590 nm. […]

[18] = biological target: T1, human alpha2-Antiplasmin; experiment: cell-based or functional assay; remark: listed apart in the source
[19] = biological target: T1, human alpha2-Antiplasmin; experiment: ELISA, coated antigen, 3rd exp.; 3rd exp.
Protocol: as §1, with “30 μl/well of this diluted detection antibody was added and plates are incubated for 1 hour at room temperature. Following this incubation step, plates were washed for 3× using 50 μl/well of a PBS+0.05% Tween 20 buffer. As substrate, a mixture of 30 μl/well of 1:1000 diluted Amplex red (Invitrogen; catalogue number 12222; stock solution 10 mM in DMSO) and 1:10.000 of Hydrogen peroxide (Merck; catalogue number 107209; 30% stock solution) was added and the plates incubated for minutes in the dark.” left out
as §5

[20] = biological target: T1, human alpha2-Antiplasmin; experiment: cell-based or functional assay; remark: listed apart in the source

Sequence of human Plasmin (P00747 97-580 limits assumed, chain 1 of 2): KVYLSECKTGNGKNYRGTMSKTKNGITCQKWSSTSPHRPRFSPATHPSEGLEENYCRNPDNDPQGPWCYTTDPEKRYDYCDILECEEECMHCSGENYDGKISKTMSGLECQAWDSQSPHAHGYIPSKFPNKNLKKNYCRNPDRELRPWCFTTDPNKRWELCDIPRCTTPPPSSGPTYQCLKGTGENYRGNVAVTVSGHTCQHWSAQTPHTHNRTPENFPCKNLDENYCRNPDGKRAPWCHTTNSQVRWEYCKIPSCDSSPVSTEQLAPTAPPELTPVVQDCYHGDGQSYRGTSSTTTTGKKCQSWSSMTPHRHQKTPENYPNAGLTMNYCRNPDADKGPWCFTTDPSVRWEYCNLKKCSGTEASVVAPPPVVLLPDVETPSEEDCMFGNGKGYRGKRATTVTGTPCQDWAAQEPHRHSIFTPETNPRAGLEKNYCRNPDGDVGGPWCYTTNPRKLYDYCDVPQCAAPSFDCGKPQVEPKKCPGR
Sequence of human Plasmin (P00747 581-810 limits assumed, chain 2 of 2): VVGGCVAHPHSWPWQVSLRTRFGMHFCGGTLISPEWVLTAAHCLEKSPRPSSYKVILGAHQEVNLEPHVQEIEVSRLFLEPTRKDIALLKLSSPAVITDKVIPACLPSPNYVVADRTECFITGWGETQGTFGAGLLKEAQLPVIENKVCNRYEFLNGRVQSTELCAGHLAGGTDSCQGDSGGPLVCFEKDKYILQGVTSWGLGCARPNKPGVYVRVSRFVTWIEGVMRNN

Row | Binder | EC50 [1] [nM] | EC50 [2] [nM] | function blocking activity [IC50 M], 1st exp. [3] [nM] | function blocking activity [IC50 M], 2nd exp. [3] [nM] | function blocking activity [IC50 M], 3rd exp. [3] [nM] | IC50 [M], inhibition of plasmin proteolytic activity [4] [M] | EC50 [5] [nM] | further results
1 | TPP-17053 hIgG1 (antibody, V domains shown, Germline variant of TPP-14308) VH: EVQLLESGGGLVQPGGSLRLSCAASGFTFDDYAMSWVRQAPGKGLEWVSAIGSGGSTYYADSVKGRFTISRDNSKNTLYLQMNSLRAEDTAVYYCAREGYDSSGYYHLDYWGQGTLVTVSS VL: QSVLTQPPSASGTPGQRVTISCTGSSSNIGATYDVHWYQQLPGTAPKLLIYSNNQRPSGVPDRFSGSKSGTSASLAISGLRSEDEADYYCAAWDWSLSGWVFGGGTKLTVLG | – | – | – | – | – | > 1e-05 | – | Kd [7]: 8.7 nM; Kd [8]: 28 nM; Kd [9]: 11 nM; EC50 [10]: 0.63 nM; EC50 [11]: 0.58 nM; EC50 (read off the curve); function blocking assay (Example 4), RFU of plasmin substrate cleavage [12]: ~0.4 nM; IC50, A2AP function blocking assay (Example 10) [13]: 0.15 nM; EC50 (read off the curve) [14]: ~0.5 nM; function blocking activity [IC50 M], 1st exp. [15]: 0.43 nM; function blocking activity [IC50 M], 2nd exp. [15]: 0.65 nM; function blocking activity [IC50 M], 3rd exp. [15]: 0.5 nM; EC50 [16]: 0.52 nM
2 | TPP-14298 hIgG1 (antibody, V domains shown) VH: EVQLLESGGGLVQPGGSLRLSCAASGFTFDDYAMSWVRQAPGKGLEWVSAIGTGGGTYYADSVKGRFTISRDNSKNTLYLQMNSLRAEDTAVYYCASEYYDSSGYYHLDYWGQGTLVTVSS VL: QSVLTQPPSASGTPGQRVTISCTGSSSNIGATYDVHWYQQLPGTAPKLLIYSNNQRPSGVPDRFSGSKSGTSASLAISGLRSEDEADYYCAAWDWSLSGWVFGGGTKLTVLG | – | 62 | 31 | 37 | 40 | > 5e-06 | 58 | EC50 [17]: 5.7 nM; EC50 (read off the curve); function blocking assay (Example 4), RFU of plasmin substrate cleavage [18]: ~30 nM

The remaining binders from weak to strong by EC50 [2], led by results:

Row | EC50 [1] [nM] | EC50 [2] [nM] | function blocking activity [IC50 M], 1st exp. [3] [nM] | function blocking activity [IC50 M], 2nd exp. [3] [nM] | function blocking activity [IC50 M], 3rd exp. [3] [nM] | IC50 [M], inhibition of plasmin proteolytic activity [4] [M] | EC50 [5] [nM] | Binder | further results
3 | 24 | 29 | 85 | 89 | 94 | > 1e-05 | – | TPP-14303 hIgG1 (antibody, V domains shown) VH: EVQLLESGGGLVQPGGSLRLSCAASGFTFDDYAMSWVRQAPGKGLEWVSAIGTGGGTYYADSVKGRFTISRDNSKNTLYLQMNSLRAEDTAVYYCAREDYDSSGYYHLDYWGQGTLVTVSS VL: QSVLTQPPSASGTPGQRVTISCTGSSSNIGATYDVHWYQQLPGTAPKLLIYSNNQRPSGVPDRFSGSKSGTSASLAISGLRSEDEADYYCAAWDWSLSGWVFGGGTKLTVLG | EC50 [19]: 27 nM; EC50 (read off the curve); function blocking assay (Example 4), RFU of plasmin substrate cleavage [20]: ~80 nM
4 | 12 | 12 | 46 | 48 | 50 | > 5e-06 | 12 | TPP-14293 hIgG1 (antibody, V domains shown) VH: EVQLLESGGGLVQPGGSLRLSCAASGFTFDDYAMSWVRQAPGKGLEWVSAIGTGGGTYYADSVKGRFTISRDNSKNTLYLQMNSLRAEDTAVYYCDREYYDSSGYYHLDYWGQGTLVTVSS VL: QSVLTQPPSASGTPGQRVTISCTGSSSNIGATYDVHWYQQLPGTAPKLLIYSNNQRPSGVPDRFSGSKSGTSASLAISGLRSEDEADYYCAAWDWSLSGWVFGGGTKLTVLG | EC50 (read off the curve); function blocking assay (Example 4), RFU of plasmin substrate cleavage [6]: ~50 nM
